B1: Pistol ribozyme (parent)
chain: GGGUCGUUGUUCCAUAAUCGCGUGGAUAUGGCACGCAAGUUUCUACCGGGCACCGUAAAUGUCCGACUGGAGCCGUUCGGGCGGCUAUAAACAGACCUCAGGCCCGAAGCGUGGCGGCACCUGCCGCCGGUGGUAAAAAAGAUCGGAAGAGCACACGUCU

Variants of: B1
Experiment: aptazyme ON/OFF ratio, guanine; higher = stronger switching; co-transcriptional cleavage with and without guanine

Variant	aptazyme ON/OFF ratio
GGGUCGCCUGGCCAUAAUCGCGUGGAUAUGGCACGCAAGUUUCUACCGGGCACCGUAAAUGUCCGACUGGAGCCGUUCGGGCGGCUAUAAACAGACCUCAGGCCCGAAGCGUGGCGGCACCUGCCGCCGGUGGUAAAAAAGAUCGGAAGAGCACACGUCU [U7C U8C G9U U10G U11G]	1.21
GGGUCGCCUGCCCAUAAUCGCGUGGAUAUGGCACGCAAGUUUCUACCGGGCACCGUAAAUGUCCGACUGGAGCCGUUCGGGCGGCUAUAAACAGACCUCAGGCCCGAAGCGUGGCGGCACCUGCCGCCGGUGGUAAAAAAGAUCGGAAGAGCACACGUCU [U7C U8C G9U U10G U11C]	1.39
GGGUCGCCUGCUAAUAAUCGCGUGGAUAUGGCACGCAAGUUUCUACCGGGCACCGUAAAUGUCCGACUGGAGCCGUUCGGGCGGCUAUAAACAGACCUCAGGCCCGAAGCGUGGCGGCACCUGCCGCCGGUGGUAAAAAAGAUCGGAAGAGCACACGUCU [U7C U8C G9U U10G U11C C12U C13A]	1.12
GGGUCGCCUGCUGAUAAUCGCGUGGAUAUGGCACGCAAGUUUCUACCGGGCACCGUAAAUGUCCGACUGGAGCCGUUCGGGCGGCUAUAAACAGACCUCAGGCCCGAAGCGUGGCGGCACCUGCCGCCGGUGGUAAAAAAGAUCGGAAGAGCACACGUCU [U7C U8C G9U U10G U11C C12U C13G]	1.09
GGGUCGCCUGCUUAUAAUCGCGUGGAUAUGGCACGCAAGUUUCUACCGGGCACCGUAAAUGUCCGACUGGAGCCGUUCGGGCGGCUAUAAACAGACCUCAGGCCCGAAGCGUGGCGGCACCUGCCGCCGGUGGUAAAAAAGAUCGGAAGAGCACACGUCU [U7C U8C G9U U10G U11C C12U C13U]	1.18
GGGUCGCCUGCCUAUAAUCGCGUGGAUAUGGCACGCAAGUUUCUACCGGGCACCGUAAAUGUCCGACUGGAGCCGUUCGGGCGGCUAUAAACAGACCUCAGGCCCGAAGCGUGGCGGCACCUGCCGCCGGUGGUAAAAAAGAUCGGAAGAGCACACGUCU [U7C U8C G9U U10G U11C C13U]	1.21
GGGUCGCCUGCCGAUAAUCGCGUGGAUAUGGCACGCAAGUUUCUACCGGGCACCGUAAAUGUCCGACUGGAGCCGUUCGGGCGGCUAUAAACAGACCUCAGGCCCGAAGCGUGGCGGCACCUGCCGCCGGUGGUAAAAAAGAUCGGAAGAGCACACGUCU [U7C U8C G9U U10G U11C C13G]	1.06
GGGUCGCCUGCCAAUAAUCGCGUGGAUAUGGCACGCAAGUUUCUACCGGGCACCGUAAAUGUCCGACUGGAGCCGUUCGGGCGGCUAUAAACAGACCUCAGGCCCGAAGCGUGGCGGCACCUGCCGCCGGUGGUAAAAAAGAUCGGAAGAGCACACGUCU [U7C U8C G9U U10G U11C C13A]	1.29
GGGUCGCCUGCGAAUAAUCGCGUGGAUAUGGCACGCAAGUUUCUACCGGGCACCGUAAAUGUCCGACUGGAGCCGUUCGGGCGGCUAUAAACAGACCUCAGGCCCGAAGCGUGGCGGCACCUGCCGCCGGUGGUAAAAAAGAUCGGAAGAGCACACGUCU [U7C U8C G9U U10G U11C C12G C13A]	1.08
GGGUCGCCUGCGGAUAAUCGCGUGGAUAUGGCACGCAAGUUUCUACCGGGCACCGUAAAUGUCCGACUGGAGCCGUUCGGGCGGCUAUAAACAGACCUCAGGCCCGAAGCGUGGCGGCACCUGCCGCCGGUGGUAAAAAAGAUCGGAAGAGCACACGUCU [U7C U8C G9U U10G U11C C12G C13G]	1.17
GGGUCGCCUGCGUAUAAUCGCGUGGAUAUGGCACGCAAGUUUCUACCGGGCACCGUAAAUGUCCGACUGGAGCCGUUCGGGCGGCUAUAAACAGACCUCAGGCCCGAAGCGUGGCGGCACCUGCCGCCGGUGGUAAAAAAGAUCGGAAGAGCACACGUCU [U7C U8C G9U U10G U11C C12G C13U]	1.1
GGGUCGCCUGGGUAUAAUCGCGUGGAUAUGGCACGCAAGUUUCUACCGGGCACCGUAAAUGUCCGACUGGAGCCGUUCGGGCGGCUAUAAACAGACCUCAGGCCCGAAGCGUGGCGGCACCUGCCGCCGGUGGUAAAAAAGAUCGGAAGAGCACACGUCU [U7C U8C G9U U10G U11G C12G C13U]	1.06
GGGUCGCCUGGGAAUAAUCGCGUGGAUAUGGCACGCAAGUUUCUACCGGGCACCGUAAAUGUCCGACUGGAGCCGUUCGGGCGGCUAUAAACAGACCUCAGGCCCGAAGCGUGGCGGCACCUGCCGCCGGUGGUAAAAAAGAUCGGAAGAGCACACGUCU [U7C U8C G9U U10G U11G C12G C13A]	1.1
GGGUCGCCUGGGGAUAAUCGCGUGGAUAUGGCACGCAAGUUUCUACCGGGCACCGUAAAUGUCCGACUGGAGCCGUUCGGGCGGCUAUAAACAGACCUCAGGCCCGAAGCGUGGCGGCACCUGCCGCCGGUGGUAAAAAAGAUCGGAAGAGCACACGUCU [U7C U8C G9U U10G U11G C12G C13G]	1.06
GGGUCGCCUGGUCAUAAUCGCGUGGAUAUGGCACGCAAGUUUCUACCGGGCACCGUAAAUGUCCGACUGGAGCCGUUCGGGCGGCUAUAAACAGACCUCAGGCCCGAAGCGUGGCGGCACCUGCCGCCGGUGGUAAAAAAGAUCGGAAGAGCACACGUCU [U7C U8C G9U U10G U11G C12U]	1.1
GGGUCGCCUGGACAUAAUCGCGUGGAUAUGGCACGCAAGUUUCUACCGGGCACCGUAAAUGUCCGACUGGAGCCGUUCGGGCGGCUAUAAACAGACCUCAGGCCCGAAGCGUGGCGGCACCUGCCGCCGGUGGUAAAAAAGAUCGGAAGAGCACACGUCU [U7C U8C G9U U10G U11G C12A]	1.13
GGGUCGCCUGGGCAUAAUCGCGUGGAUAUGGCACGCAAGUUUCUACCGGGCACCGUAAAUGUCCGACUGGAGCCGUUCGGGCGGCUAUAAACAGACCUCAGGCCCGAAGCGUGGCGGCACCUGCCGCCGGUGGUAAAAAAGAUCGGAAGAGCACACGUCU [U7C U8C G9U U10G U11G C12G]	1.1
GGGUCGCCUGGAAAUAAUCGCGUGGAUAUGGCACGCAAGUUUCUACCGGGCACCGUAAAUGUCCGACUGGAGCCGUUCGGGCGGCUAUAAACAGACCUCAGGCCCGAAGCGUGGCGGCACCUGCCGCCGGUGGUAAAAAAGAUCGGAAGAGCACACGUCU [U7C U8C G9U U10G U11G C12A C13A]	1.01

Variant	aptazyme ON/OFF ratio
GGGUCGCCUGGAGAUAAUCGCGUGGAUAUGGCACGCAAGUUUCUACCGGGCACCGUAAAUGUCCGACUGGAGCCGUUCGGGCGGCUAUAAACAGACCUCAGGCCCGAAGCGUGGCGGCACCUGCCGCCGGUGGUAAAAAAGAUCGGAAGAGCACACGUCU [U7C U8C G9U U10G U11G C12A C13G]	1.09
GGGUCGCCUGGAUAUAAUCGCGUGGAUAUGGCACGCAAGUUUCUACCGGGCACCGUAAAUGUCCGACUGGAGCCGUUCGGGCGGCUAUAAACAGACCUCAGGCCCGAAGCGUGGCGGCACCUGCCGCCGGUGGUAAAAAAGAUCGGAAGAGCACACGUCU [U7C U8C G9U U10G U11G C12A C13U]	1.1
GGGUCGCCUGCACAUAAUCGCGUGGAUAUGGCACGCAAGUUUCUACCGGGCACCGUAAAUGUCCGACUGGAGCCGUUCGGGCGGCUAUAAACAGACCUCAGGCCCGAAGCGUGGCGGCACCUGCCGCCGGUGGUAAAAAAGAUCGGAAGAGCACACGUCU [U7C U8C G9U U10G U11C C12A]	1.17
GGGUCGCCUGCGCAUAAUCGCGUGGAUAUGGCACGCAAGUUUCUACCGGGCACCGUAAAUGUCCGACUGGAGCCGUUCGGGCGGCUAUAAACAGACCUCAGGCCCGAAGCGUGGCGGCACCUGCCGCCGGUGGUAAAAAAGAUCGGAAGAGCACACGUCU [U7C U8C G9U U10G U11C C12G]	1.24
GGGUCGCCUGCUCAUAAUCGCGUGGAUAUGGCACGCAAGUUUCUACCGGGCACCGUAAAUGUCCGACUGGAGCCGUUCGGGCGGCUAUAAACAGACCUCAGGCCCGAAGCGUGGCGGCACCUGCCGCCGGUGGUAAAAAAGAUCGGAAGAGCACACGUCU [U7C U8C G9U U10G U11C C12U]	1.25
GGGUCGCCUGACUAUAAUCGCGUGGAUAUGGCACGCAAGUUUCUACCGGGCACCGUAAAUGUCCGACUGGAGCCGUUCGGGCGGCUAUAAACAGACCUCAGGCCCGAAGCGUGGCGGCACCUGCCGCCGGUGGUAAAAAAGAUCGGAAGAGCACACGUCU [U7C U8C G9U U10G U11A C13U]	1.17
GGGUCGCCUGACGAUAAUCGCGUGGAUAUGGCACGCAAGUUUCUACCGGGCACCGUAAAUGUCCGACUGGAGCCGUUCGGGCGGCUAUAAACAGACCUCAGGCCCGAAGCGUGGCGGCACCUGCCGCCGGUGGUAAAAAAGAUCGGAAGAGCACACGUCU [U7C U8C G9U U10G U11A C13G]	1.1
GGGUCGCCUGACAAUAAUCGCGUGGAUAUGGCACGCAAGUUUCUACCGGGCACCGUAAAUGUCCGACUGGAGCCGUUCGGGCGGCUAUAAACAGACCUCAGGCCCGAAGCGUGGCGGCACCUGCCGCCGGUGGUAAAAAAGAUCGGAAGAGCACACGUCU [U7C U8C G9U U10G U11A C13A]	1.18
GGGUCGCCUGAUCAUAAUCGCGUGGAUAUGGCACGCAAGUUUCUACCGGGCACCGUAAAUGUCCGACUGGAGCCGUUCGGGCGGCUAUAAACAGACCUCAGGCCCGAAGCGUGGCGGCACCUGCCGCCGGUGGUAAAAAAGAUCGGAAGAGCACACGUCU [U7C U8C G9U U10G U11A C12U]	1.17
GGGUCGCCUGCAGAUAAUCGCGUGGAUAUGGCACGCAAGUUUCUACCGGGCACCGUAAAUGUCCGACUGGAGCCGUUCGGGCGGCUAUAAACAGACCUCAGGCCCGAAGCGUGGCGGCACCUGCCGCCGGUGGUAAAAAAGAUCGGAAGAGCACACGUCU [U7C U8C G9U U10G U11C C12A C13G]	1.07
GGGUCGCCUGCAUAUAAUCGCGUGGAUAUGGCACGCAAGUUUCUACCGGGCACCGUAAAUGUCCGACUGGAGCCGUUCGGGCGGCUAUAAACAGACCUCAGGCCCGAAGCGUGGCGGCACCUGCCGCCGGUGGUAAAAAAGAUCGGAAGAGCACACGUCU [U7C U8C G9U U10G U11C C12A C13U]	1.1
GGGUCGCCUGCAAAUAAUCGCGUGGAUAUGGCACGCAAGUUUCUACCGGGCACCGUAAAUGUCCGACUGGAGCCGUUCGGGCGGCUAUAAACAGACCUCAGGCCCGAAGCGUGGCGGCACCUGCCGCCGGUGGUAAAAAAGAUCGGAAGAGCACACGUCU [U7C U8C G9U U10G U11C C12A C13A]	1.18
GGGUCGCCUGAUAAUAAUCGCGUGGAUAUGGCACGCAAGUUUCUACCGGGCACCGUAAAUGUCCGACUGGAGCCGUUCGGGCGGCUAUAAACAGACCUCAGGCCCGAAGCGUGGCGGCACCUGCCGCCGGUGGUAAAAAAGAUCGGAAGAGCACACGUCU [U7C U8C G9U U10G U11A C12U C13A]	1.1
GGGUCGCCUGAUGAUAAUCGCGUGGAUAUGGCACGCAAGUUUCUACCGGGCACCGUAAAUGUCCGACUGGAGCCGUUCGGGCGGCUAUAAACAGACCUCAGGCCCGAAGCGUGGCGGCACCUGCCGCCGGUGGUAAAAAAGAUCGGAAGAGCACACGUCU [U7C U8C G9U U10G U11A C12U C13G]	1.12
GGGUCGCCUGAUUAUAAUCGCGUGGAUAUGGCACGCAAGUUUCUACCGGGCACCGUAAAUGUCCGACUGGAGCCGUUCGGGCGGCUAUAAACAGACCUCAGGCCCGAAGCGUGGCGGCACCUGCCGCCGGUGGUAAAAAAGAUCGGAAGAGCACACGUCU [U7C U8C G9U U10G U11A C12U C13U]	1.21
GGGUCGCCUGGUAAUAAUCGCGUGGAUAUGGCACGCAAGUUUCUACCGGGCACCGUAAAUGUCCGACUGGAGCCGUUCGGGCGGCUAUAAACAGACCUCAGGCCCGAAGCGUGGCGGCACCUGCCGCCGGUGGUAAAAAAGAUCGGAAGAGCACACGUCU [U7C U8C G9U U10G U11G C12U C13A]	1.08
GGGUCGCCUGGUGAUAAUCGCGUGGAUAUGGCACGCAAGUUUCUACCGGGCACCGUAAAUGUCCGACUGGAGCCGUUCGGGCGGCUAUAAACAGACCUCAGGCCCGAAGCGUGGCGGCACCUGCCGCCGGUGGUAAAAAAGAUCGGAAGAGCACACGUCU [U7C U8C G9U U10G U11G C12U C13G]	1.09
GGGUCGCCUGGUUAUAAUCGCGUGGAUAUGGCACGCAAGUUUCUACCGGGCACCGUAAAUGUCCGACUGGAGCCGUUCGGGCGGCUAUAAACAGACCUCAGGCCCGAAGCGUGGCGGCACCUGCCGCCGGUGGUAAAAAAGAUCGGAAGAGCACACGUCU [U7C U8C G9U U10G U11G C12U C13U]	1.08

From the RNAGym collection of RNA variant scans (doi:10.1021/acssynbio.7b00057)
